The sequences below were run on K4 kissing-loop RNA reporter (assay: apparent KD of K4 kissing-loop reporter; higher = weaker reporter binding). Settings: Eterna round: R107; input ligand: FMN 200 uM.
Procedure: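 RNA-MaP round R107: designed RNA switches with theophylline, tryptophan, arginine or FMN aptamers are transcribed on-chip within common flanks. They are titrated with a labelled K4 kissing-loop RNA reporter in RNA-MaP buffer (100 mM Tris pH 7.5, 80 mM KCl, 4 mM MgCl2), without ligand or with the indicated ligand. Median apparent KD per design.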
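Further: bound reporter read as fluorescence of individual clusters on recovered sequencing chips by microscopy, with normalized cluster intensities fitted with a binding model.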

Compared with “CGAGUACAUUGCGAUACCAGCGAUAGCAGUUCAACGCGCAGUCCGUUUAGUGAUGUUAGACGCCCUUGGCAGCGCUUCCUGGCAA [theeternabot_exclusion_KL_Theo_B_44]”, “AUGCCUAUGACGGCCGCCACUGAGAGUCAGUGAUGUUGACUCGAUACAGCUGAUUAGCAGCUAAUCAGGACCGGGUCAUACACAU [Tryp B SS t3]” is 2.1-fold lower in “apparent KD of K4 kissing-loop reporter” value: 519 nM for the first, 243 nM for the second.

“UAGCGGUAGAGGCCACCGCUAUUCUGAGAAGGAGCGCAGAUGACUGCAGGUAGGUCGCUUAGAGCUUGCAGUGAUGUUGCAAGUU [Tebete]” and “GGUUUUAACCGCAGUGAUGUUGCGUUGAAACGAGGACCGGUACGGCCGCCACUCGAAAAGAAGCGGCCAAAUUAAAAUCGUAAAG [Exclusion Tryptophan A GF 23]” are within 1.5-fold of each other in “apparent KD of K4 kissing-loop reporter” value: 171 nM for the first, 129 nM for the second.

First: GCGAAGAGAGAAGGAUAUUAGUAAUGCGUCAUGCGCCCUUACCAGUUAGUGAUGUUAACAAUACAUUAAGAAGGUCUCGGAAUCC [theeternabot_sameState_KL_FMN_B_50]
Second: CUGUAUCAUAUUGAUACCAGAGAAAGAACCAGUGAUGUUGGAAAAGACGAAUAAAUUAUACUCCCUUGGCAGCGGAAAUGAACAG [Totally accidental]
The “apparent KD of K4 kissing-loop reporter” value of the first is 4.1-fold higher: 297 nM for the first, 73 nM for the second.

Going from “GACGUUGAAGCGGCCGCCACUAGGAAGGGUACGGAGAGUACAUCUCACGGAGAGUGAUGUUCUCAUAGGACCGGGCUCAUAUCAA [theeternabot_sameState_KL_Trp_B_21]” to “AGUCCACUCUAAAGAGUGGACCUAAGGGAUACCAGUGAUGUUGGUCACCCUUGGCAGCCCUCUGUCAUCGAUAAAGAUGGCAGUA”, the “apparent KD of K4 kissing-loop reporter” value falls from 308 nM to 119 nM (2.6-fold).

“AAAAUAAACCAGUGAUGUUGGUGUCCAGAUACCAGCGACGAAAGUCGCCCUUGGCAGCUGUGGACGUACAAAAUAAGUACGUCCU” and “UAAUUUAUGUCUUUAAUAUAAUAAUCAGAUACCAGUGAUUUAUGACACCCUUGGCAGCUGUAUAGAGUGAUGUUCUUAUACAUAA [JR_Nu_ExcTheophyA_Sub020]” are within 1.5-fold of each other in “apparent KD of K4 kissing-loop reporter” value: 332 nM for the first, 388 nM for the second.

Going from “UGUCAUUGGUCGGCCGCCACUUCGUAUGAAGUGAUGUUUUGUAGAUUGUGUUGAAAGGUAUGGUGAAGGACCGGGACCGAUGACU [FiskerMod 22 - Jieux - Same State - Tryptophan B]” to “AAGUGUCAUUAGACACACGCAUCUAUAAACUAGGAUAUGCUGAUAAGCAGAAGGAGUGAUGUUCCUUUCAUGAUGCGAAUUAAAU [#07 K4 FMN A Exclusion]”, the “apparent KD of K4 kissing-loop reporter” value falls from 516 nM to 224 nM (2.3-fold).

Going from “GUCCAACCUGGAGGAUAUCUGCUGUCCAGUGAUGUUGGACACCUUAGUAAAGGCCGGGUAGCCCGCAGAGAAGGCCGGAGUUGCC [Isateron]” to “AAGUGUGUGGCGGCCGCCACUAGAAUCCAGUGAUGUUGGAGAUAUCACGUAAGUGAUAUCCAUCAUAGGACCGGGCCAUAUAGAA [Same State - Tryptophan B (Freestyle 18)]”, the “apparent KD of K4 kissing-loop reporter” value rises from 265 nM to 675 nM (2.5-fold).

Compared with “GACAGUCGGUGUUAAUGACAGUUACGCGAUACCAGCGAAACAGUACGCCCUUGGCAGCGCAGUGAUGUUGCGCGCCUAGUGUGGU [Esbiceve]”, “UUACUACCCAGUGAUGUUGGGUAGCGGCGGCGAGGACCGGUACGGCCGCCACUCGGCGCACGGGAGUGAUGUUCCUAAGAAUAAA [Same State Tryptophan A GF 9]” is 3-fold higher in “apparent KD of K4 kissing-loop reporter” value: 99.5 nM for the first, 295 nM for the second.

First: AAUAACUUGCAGUGAUGUUGCAAGAAAUCUCAGGAUAUCAGGAAACUGAGAAGGGAGUAUCCUGAGUAAACAUCACAUCUUAGGA [KL-SSFMN-A8]
Second: AGUGAUGUUGUGUUAUCUUAGUGAAGUGAUCGAGGACCGGUACGGCCGCCACUCGAGUGAUGAGUGAGUGAUGUUUGUUUAGGGA [vvbmullin]
The “apparent KD of K4 kissing-loop reporter” value of the first is 2.5-fold lower: 322 nM for the first, 818 nM for the second.

Going from “UGUCAUGGAAACAUGAACGUUAAAAUAAAUCGAGGACCGGUACGGCCGCCACUCGUAUAGCGGUCAGUGAUGUUGACUGUAGUAC [KL-SSTryp-A form2 sub11 #dotplot2>1]” to “UUGUUUUACUGAAGGAGCGGCAAUUGAUACGUAGAUAUAGUGAUGUUAUAUAAGAUAGAGAGCCAGGUAGGUCGCAGAUGUGUUU [ExArgB.T]”, the “apparent KD of K4 kissing-loop reporter” value rises from 107 nM to 196 nM (1.8-fold).

Compared with “UGAUACCAGACGGCCGCCACUCCCGUAAGUCAAAGACUUACCAAGAGUAUCGUCCAGUGAUGUUGGAGGACCGGGUCUGGUAUCU [FiskerMod 9 - Jieux - Exclusion - Tryptophan B]”, “UGAUAGGACAGAAGGAGCGGAAGUGAUGUUUCCAAAAGGGUAAGGUGUCAAAAGACACCCUUCCAGGUAGGUCGCUGUCCUAUCU” is 4-fold lower in “apparent KD of K4 kissing-loop reporter” value: 376 nM for the first, 93.9 nM for the second.

First: CCUAUCUCAUACGAUACCAGUCAAUUAAAACGAGUGAUGUUCGAAAAUUUGCCAUAUAAUGACCCUUGGCAGCGUAUGGGAUAGG [Ex Theophylline B K4 7]
Second: GCCGUAGAUUGAAGGAGCGGCUUCAUCAAAUCUCUUGCCCGCACCAGUGAUGUUGGUGUUAGCCAGGUAGGUCGCAAUCUACGGC
The “apparent KD of K4 kissing-loop reporter” value of the first is 3.1-fold lower: 187 nM for the first, 577 nM for the second.

“AAACAUCACUGGGAGUGAUGUUCUCAGUGACGAGGACCGGUACGGCCGCCACUCGCGAGAGAUUUAGUCUAGUAUUGACUGCAUU [Excl Tryptophan A V11]” and “AGUGAUGUGGGAAGGAGCGGUAUAUGAGUUCAGUGAUGUUGAAGUGAUGCUGUAGUGAUGUGCCAGGUAGGUCGCCUAGAUGUUA [whbob_Ex_Arginine_B_2th165]” are within 1.5-fold of each other in “apparent KD of K4 kissing-loop reporter” value: 294 nM for the first, 374 nM for the second.

Going from “GGGCGUAUUCACCGAGUGAUGUUCGGAAGGAAGGAUAUUCAAGAUUGAAGAAGGUCCGGCCCAUCGGCCAUUAAACUUGAAAGGU [theeternabot_sameState_KL_FMN_A_48]” to “AUUCGUUUAUGUGAUACCAGACUUUGCAGUGAUGUUGCAUUAAUUAUUGAUGAUUAGUUUGUCCCUUGGCAGCACUAUUUAUUUA [JR_SSTheophyB_Sub003]”, the “apparent KD of K4 kissing-loop reporter” value falls from 171 nM to 54.6 nM (3.1-fold).

Compared with “AUGUCUUAUAAACUCAUGGUUUCGACAGAUACCAGCUUCGAGAGGAGCCCUUGGCAGCUGCAUGAGUGAUGUUCAUGUACGAAGA [KL-XTheoA6]”, “GGUUCCUCAGUGAUGUUGAGGUGACCUCGGCAGGAUAUAGGCAUUACUAGAAGGGCCAAAUGAACCCUGUCCAGCGGCACAGGGA [Arleorbile]” is 2.5-fold lower in “apparent KD of K4 kissing-loop reporter” value: 370 nM for the first, 147 nM for the second.

“AACCACUCGUUACAUCACUAUCGAGUGGAACGAGGACCGGUACGGCCGCCACUCGAUAAGAUGCAGUGAUGUUGCAUCUAAGAAU [KL-SSTryp-A (BrourdMod)5 #dotplot2 strengthened]” and “GCCUGAGCACGAAGGAGCGCCGUGACAGGUUACUGCCUUGGGCAGUGAUGUUGCUCAAUCUGGCAGGUAGGUCGCGUGCUCAGGC” are within 1.5-fold of each other in “apparent KD of K4 kissing-loop reporter” value: 208 nM for the first, 165 nM for the second.

“UGUACCGAGUCAGGAUAUAGCGUCGAAAGACGAAAUGGAGUGAUGUUCCUUAAACUGCGAAAGCAGCUAGAAGGGACUUGGUACU [FmnBS 28 #SwitchBubble #StaticStem #DoubleMagnetSystem]” and “CGCAGUGAUGUUGCGAGUUCAUUCAGGGAAGGAGCGCCACAGAUGGCAGGUAGGUCGCCCACGCAGUGAUGUUGUGUAUUCGGGU [Exclusion Arginine A GF 2]” are within 1.5-fold of each other in “apparent KD of K4 kissing-loop reporter” value: 153 nM for the first, 202 nM for the second.

First: UACUAUAGUGAUGUUAUAGAUAAACCAGAUACCAGUGUAACAUAACACCCUUGGCAGCUGAUGAGGGAAGUUAUCAAAAGAUAAC [AstroSTH-A#10designED4.80]
Second: UUUUUGGAGAAUUAUAGUGAUGUUAUGAAGGAGGAUAUCUGGAGAUGGAGAAGGCCUAGUGGCUCAGCCCUGGAGGGUGGGUGGG [ExFMNA.aB]
The “apparent KD of K4 kissing-loop reporter” value of the first is 3.6-fold lower: 227 nM for the first, 822 nM for the second.

Going from “UUACAGGAACAAGGAUAUGGCGUUGUAGUGAUGUUACAGCGAAGAGCUCCACGCGAUCGGACAAAACCAGAAGGUGUAUGGAAUC [theeternabot_exclusion_KL_FMN_B_42]” to “GGUUGAAGCACCCGGAGUGAUGUUCCGGAUACCAGCAAACCAACUUGCCCUUGGCAGCCGUAUAGCGUCCGGUGGGCCGAGCAUA [Beisadi]”, the “apparent KD of K4 kissing-loop reporter” value falls from 155 nM to 101 nM (1.5-fold).

“UGACUGGACUGAAGGAGCGCGCGAGACAAAGUCUCGAACUCUUAGUGAUGUUAGGAAAUAACGCAGGUAGGUCGCAGUCUAGUCU” and “CGGCGGAGUGAUGUUCUGCUCGCUCCGGAUACCAGCUUCGCCAGAGGCCCUUGGCAGCCGGGCGGCCCAGUGAUGUUGGGUUGCG [Same State Theophylline A GF 17]” are within 1.5-fold of each other in “apparent KD of K4 kissing-loop reporter” value: 381 nM for the first, 297 nM for the second.

Compared with “AACUCUCAGGCAGCCGAGUGAUGUUCGGCCCGAGGACCGGUACGGCCGCCACUCGGGCCUGAGAGAGGUUAUCAAAGAUAGCCAA [#01 K4 Tryptophan A Same State]”, “GUACAUUGGAAACAAGAACAAAUAACCGAAGGAGCGCGUGAAAACGCAGGUAGGUCGCGGAAGCAGUGAUGUUGCAUUAGAGAUC [Same State Arginine A GF 16]” is 2.4-fold lower in “apparent KD of K4 kissing-loop reporter” value: 194 nM for the first, 79.2 nM for the second.

In the case of “CGGAGUGAUGUUCCUUUUAUUAAUUAUUUACGAGGACCGGUACGGCCGCCACUCGAUUUAGCUUUUAUUUAAUGCUUGGAUGUUU [JR_SSTryptoA_Sub004]”, the “apparent KD of K4 kissing-loop reporter” value is reported as 130 nM.

Same assay, conditions: Eterna round: R107; input ligand: arginine 13.2 mM

Compared with “CGAGUACAUUGCGAUACCAGCGAUAGCAGUUCAACGCGCAGUCCGUUUAGUGAUGUUAGACGCCCUUGGCAGCGCUUCCUGGCAA [theeternabot_exclusion_KL_Theo_B_44]”, “AUGCCUAUGACGGCCGCCACUGAGAGUCAGUGAUGUUGACUCGAUACAGCUGAUUAGCAGCUAAUCAGGACCGGGUCAUACACAU [Tryp B SS t3]” is 2.1-fold lower in “apparent KD of K4 kissing-loop reporter” value: 324 nM for the first, 158 nM for the second.

“UAGCGGUAGAGGCCACCGCUAUUCUGAGAAGGAGCGCAGAUGACUGCAGGUAGGUCGCUUAGAGCUUGCAGUGAUGUUGCAAGUU [Tebete]” and “GGUUUUAACCGCAGUGAUGUUGCGUUGAAACGAGGACCGGUACGGCCGCCACUCGAAAAGAAGCGGCCAAAUUAAAAUCGUAAAG [Exclusion Tryptophan A GF 23]” are within 1.5-fold of each other in “apparent KD of K4 kissing-loop reporter” value: 175 nM for the first, 162 nM for the second.

Going from “GCGAAGAGAGAAGGAUAUUAGUAAUGCGUCAUGCGCCCUUACCAGUUAGUGAUGUUAACAAUACAUUAAGAAGGUCUCGGAAUCC [theeternabot_sameState_KL_FMN_B_50]” to “CUGUAUCAUAUUGAUACCAGAGAAAGAACCAGUGAUGUUGGAAAAGACGAAUAAAUUAUACUCCCUUGGCAGCGGAAAUGAACAG [Totally accidental]”, the “apparent KD of K4 kissing-loop reporter” value falls from 169 nM to 85.6 nM (2-fold).

Going from “GACGUUGAAGCGGCCGCCACUAGGAAGGGUACGGAGAGUACAUCUCACGGAGAGUGAUGUUCUCAUAGGACCGGGCUCAUAUCAA [theeternabot_sameState_KL_Trp_B_21]” to “AGUCCACUCUAAAGAGUGGACCUAAGGGAUACCAGUGAUGUUGGUCACCCUUGGCAGCCCUCUGUCAUCGAUAAAGAUGGCAGUA”, the “apparent KD of K4 kissing-loop reporter” value falls from 215 nM to 101 nM (2.1-fold).

First: AAAAUAAACCAGUGAUGUUGGUGUCCAGAUACCAGCGACGAAAGUCGCCCUUGGCAGCUGUGGACGUACAAAAUAAGUACGUCCU
Second: UAAUUUAUGUCUUUAAUAUAAUAAUCAGAUACCAGUGAUUUAUGACACCCUUGGCAGCUGUAUAGAGUGAUGUUCUUAUACAUAA [JR_Nu_ExcTheophyA_Sub020]
The “apparent KD of K4 kissing-loop reporter” value of the first is 2.2-fold lower: 229 nM for the first, 504 nM for the second.
